PMC3543382, “Elements of Transcriptional Machinery Are Compatible among Plants and Mammals” (PLoS ONE, 2013)

Biological target: RelA-ECFP (human, UniProt Q04206 1-551)
Assay: cell-based or functional assay

Sequence of RelA-ECFP (Q04206 whole entry): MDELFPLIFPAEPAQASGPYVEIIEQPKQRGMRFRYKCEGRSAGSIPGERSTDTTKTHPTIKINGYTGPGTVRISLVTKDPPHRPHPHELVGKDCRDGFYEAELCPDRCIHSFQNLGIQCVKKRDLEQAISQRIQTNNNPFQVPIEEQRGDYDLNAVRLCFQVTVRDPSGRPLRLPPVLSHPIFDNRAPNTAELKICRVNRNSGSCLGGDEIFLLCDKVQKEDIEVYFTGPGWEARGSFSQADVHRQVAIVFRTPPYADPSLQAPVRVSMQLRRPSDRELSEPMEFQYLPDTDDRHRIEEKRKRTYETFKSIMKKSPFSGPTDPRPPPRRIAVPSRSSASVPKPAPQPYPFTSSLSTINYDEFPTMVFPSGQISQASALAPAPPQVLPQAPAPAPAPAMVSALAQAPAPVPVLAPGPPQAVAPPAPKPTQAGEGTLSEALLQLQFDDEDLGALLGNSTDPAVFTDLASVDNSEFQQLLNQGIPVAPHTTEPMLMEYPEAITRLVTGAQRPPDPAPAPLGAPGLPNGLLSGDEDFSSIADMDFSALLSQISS

transactivation of the IκBα-promoter EYFP reporter by the p50/RelA heterodimer in the presence of IκB (untagged proteins) in Arabidopsis protoplasts, EYFP/ECFP emission relative to the basal activity: 3.5 fold
B1: IκB-EYFP (natural protein, human, UniProt P25963 1-317, looked up)
chain: MFQAAERPQEWAMEGPRDGLKKERLLDDRHDSGLDSMKDEEYEQMVKELQEIRLEPQEVPRGSEPWKQQLTEDGDSFLHLAIIHEEKALTMEVIRQVKGDLAFLNFQNNLQQTPLHLAVITNQPEIAEALLGAGCDPELRDFRGNTPLHLACEQGCLASVGVLTQSCTTPHLHSILKATNYNGHTCLHLASIHGYLGIVELLVSLGADVNAQEPCNGRTALHLAVDLQNPDLVSLLLKCGADVNRVTYQGYSPYQLTWGRPSTRIQQQLGQLTLENLQMLPESEDEESYDTESEFTEFTEDELPYDDCVFGGQRLTL
